Results from article PMC10113545, “OsWRKY76 positively regulates drought stress via OsbHLH148-mediated jasmonate signaling in rice”.

Assays:
GST-OsWRKY76 [1] = molecular target: T1, GST-OsWRKY76 (Oryza sativa, UniProt Q6EPZ2 1-327); assay: competition; 10x and 50x molar excess of unlabeled probe reduced the N1 shift; EMSA as in Gao et al. 2019; buffer, salt, pH and temperature not stated; conditions: protein: recombinant; tags: N-terminal GST (pGEX-4T-3); blunt
T1 sequence: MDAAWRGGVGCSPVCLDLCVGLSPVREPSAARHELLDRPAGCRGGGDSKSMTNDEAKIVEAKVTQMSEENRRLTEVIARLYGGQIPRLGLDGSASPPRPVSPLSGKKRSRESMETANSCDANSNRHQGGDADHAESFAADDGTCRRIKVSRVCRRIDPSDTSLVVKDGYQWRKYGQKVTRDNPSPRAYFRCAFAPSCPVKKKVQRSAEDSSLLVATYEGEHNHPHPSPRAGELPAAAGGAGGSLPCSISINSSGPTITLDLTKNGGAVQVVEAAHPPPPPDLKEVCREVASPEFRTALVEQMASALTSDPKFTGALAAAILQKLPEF

GST-OsWRKY76 [2] = molecular target: T1, GST-OsWRKY76; assay: EMSA; EMSA as in Gao et al. 2019; buffer, salt, pH and temperature not stated; conditions: protein: recombinant; tags: N-terminal GST (pGEX-4T-3); label: 6-FAM 5' end (strand(s) not specified); blunt

B1: OsDREB1E unlabeled competitor probe (dsDNA)
DNA 1: GCACGGGTAGTTTTGACCTATAGGAGTGTA
DNA 2: TACACTCCTATAGGTCAAAACTACCCGTGC
B1: binds (GST-OsWRKY76 [1]).

B2: OsDREB1E probe (6-FAM) (dsDNA)
DNA 1: B1 DNA 1
DNA 2: B1 DNA 2
B2: binds (GST-OsWRKY76 [2]).
